Substitutions are numbered along the chain they refer to. Numbers in names are those of the source.
B1: TAF443-3A250K (other)
heavy: LVVTPPGPELVLNVSSTFVLTCSGSAPVVWERMSQEPPQEMAKAQDGTFSSVLTLTNLTGLDTGEYFCTHNDSRGLETDERKRLYIFVPDPTVGFLPNDAEELFIFLTEITEITIPCRVTDPQLVVTLHEKKGDVALPVPYDHQRGFSGIFEDRSYICKTTIGDREVDSDAYYVYRLQVSSINVSVNAVQTVVRQGENITLMCIVIGNEVVNFEWTYPRKESGRLVEPVTDFLLDMPYHIRSILHIPSAELEDSGTYTCNVTESVNDHQDEKAINITVVESGGGGGSGGGGSEVQLVESGGGLVQPGGSLRLSCAASGYDFTHYGMNWVRQAPGKGLEWVGWINTYTGEPTYAADFKRRFTFSLDTSKSTAYLQMNSLRAEDTAVYYCAKYPYYYGTSHWYFDVWGQGTLVTVSSASTKGPSVFPLAPSSKSTSGGTAALGCLVKDYFPEPVTVSWNSGALTSGVHTFPAVLQSSGLYSLSSVVTVPSSSLGTQTYICNVNHKPSNTKVDKKVEPKSCDKTHTCPPCPAPEAAGAPSVFLFPPKPKDTLMISRTPEVTCVVVDVSHEDPEVKFNWYVDGVEVHNAKTKPREEQYNSTYRVVSVLTVLHQDWLNGKEYKCKVSNKALPAPIEKTISKAKGQPREPQVYTLPPSREEMTKNQVSLTCLVKGFYPSDIAVEWESNGQPENNYKTTPPVLDSDGSFFLYSKLTVDKSRWQQGNVFSCSVMHEALHNHYTQKSLSCSPGK
light: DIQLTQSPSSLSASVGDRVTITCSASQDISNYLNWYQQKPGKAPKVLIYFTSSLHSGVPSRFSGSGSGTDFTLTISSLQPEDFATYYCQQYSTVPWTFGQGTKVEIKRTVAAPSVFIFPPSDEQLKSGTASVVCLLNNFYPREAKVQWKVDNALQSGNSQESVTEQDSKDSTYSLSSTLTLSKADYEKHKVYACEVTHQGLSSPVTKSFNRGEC
modifications: polymer conjugate, label 3A250K; polymer and attachment site not described for this conjugate
notes: also called R3644-3A
B2: TAF (PDGFRβ-GS10-anti-VEGF-A heavy chain/anti-VEGF-A light chain) (other)
heavy: B1 heavy with C741L
light: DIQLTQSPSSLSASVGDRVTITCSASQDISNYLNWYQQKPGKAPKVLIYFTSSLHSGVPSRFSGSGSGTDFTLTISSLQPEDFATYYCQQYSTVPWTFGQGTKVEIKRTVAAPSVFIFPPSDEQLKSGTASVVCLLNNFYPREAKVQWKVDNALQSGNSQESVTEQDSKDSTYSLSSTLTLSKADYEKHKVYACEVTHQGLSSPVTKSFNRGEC
modifications: Glycosylated PDGFR segment. The molecule is a dimer of two fusion heavy chains and two light chains.
notes: PDGFR-beta trap fused to the N-terminus of an anti-VEGF-A IgG1 heavy chain; also called TAF-WT; TAFwt
B3: TAF443-6A250K (other)
heavy: B1 heavy
light: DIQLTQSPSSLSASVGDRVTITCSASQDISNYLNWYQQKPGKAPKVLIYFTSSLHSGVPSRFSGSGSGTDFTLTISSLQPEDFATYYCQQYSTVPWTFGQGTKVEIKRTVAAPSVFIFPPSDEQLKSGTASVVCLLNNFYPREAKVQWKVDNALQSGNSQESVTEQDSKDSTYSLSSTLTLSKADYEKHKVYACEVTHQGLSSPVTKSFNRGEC
modifications: polymer conjugate, label 6A250K; polymer and attachment site not described for this conjugate
notes: also called R3643-6A
B4: TAF443 (PDGFRβ-GS10-anti-VEGF-A heavy chain (L443C)/anti-VEGF-A light chain) (other)
heavy: B1 heavy
light: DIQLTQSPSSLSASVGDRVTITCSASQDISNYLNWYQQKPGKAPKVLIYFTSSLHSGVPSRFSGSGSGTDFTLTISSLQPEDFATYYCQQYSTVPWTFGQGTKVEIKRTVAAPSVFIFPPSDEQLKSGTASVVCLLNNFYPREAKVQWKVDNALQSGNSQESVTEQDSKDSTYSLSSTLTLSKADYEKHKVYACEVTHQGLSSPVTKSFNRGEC
notes: also called OG1321; TAF-443C
B5: TAF347 (PDGFRβ-GS10-anti-VEGF-A heavy chain (Q347C)/anti-VEGF-A light chain) (other)
heavy: B1 heavy with Q645C, C741L
light: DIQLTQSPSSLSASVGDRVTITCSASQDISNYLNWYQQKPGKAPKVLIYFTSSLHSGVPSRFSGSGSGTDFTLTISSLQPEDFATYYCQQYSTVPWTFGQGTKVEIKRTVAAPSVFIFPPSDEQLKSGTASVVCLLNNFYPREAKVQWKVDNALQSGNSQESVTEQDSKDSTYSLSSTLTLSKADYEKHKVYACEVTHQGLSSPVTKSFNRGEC
notes: Same as TAF except for Q347C (EU numbering); also called TAF-347C
B6: OG1448 (TAF443 conjugated to the OG1802 biopolymer) (other)
heavy: B1 heavy
light: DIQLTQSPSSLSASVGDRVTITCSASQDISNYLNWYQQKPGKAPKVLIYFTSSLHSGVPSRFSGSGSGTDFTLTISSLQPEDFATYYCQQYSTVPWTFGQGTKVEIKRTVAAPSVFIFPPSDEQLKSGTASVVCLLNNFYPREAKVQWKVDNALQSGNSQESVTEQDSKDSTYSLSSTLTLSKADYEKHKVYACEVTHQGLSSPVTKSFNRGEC
modifications: OG1802 biopolymer (about 750 kDa, 9-arm HEMA-PC, maleimide) on the cysteine 443 residue (L443C, EU numbering)
notes: also called TAF443 polymer conjugate
B7: rhVEGFA-165 (ligand, human, UniProt P15692-4 27-191, looked up)
chain: APMAEGGGQNHHEVVKFMDVYQRSYCHPIETLVDIFQEYPDEIEYIFKPSCVPLMRCGGCCNDEGLECVPTEESNITMQIMRIKPHQGQHIGEMSFLQHNKCECRPKKDRARQENPCGPCSERRKHLFVQDPQTCKCSCKNTDSRCKARQLELNERTCRCDKPRR
modifications: biotinylated in Example 34
B8: aflibercept (Fc fusion, UniProt P17948 129-230, looked up, not shown: a dimerising Fc or GST)
chain: SDTGRPFVEMYSEIPEIIHMTEGRELVIPCRVTSPNITVTLKKFPLDTLIPDGKRIIWDSRKGFIISNATYKEIGLLTCEATVNGHLYKTNYLTHRQTNTIIDVVLSPSHGIELSVGEKLVLNCTARTELNVGIDFNWEYPSSKHQHKKLVNRDLKTQSGSEMKKFLSTLTIDGVTRSDQGLYTCAASSGLMTKKNSTFVRVHEK

Each binder was assayed against T1, recombinant human PDGF-BB (human, UniProt P01127 82-190) (assay: SPR (Biacore T200, 25 C), binder captured by anti-human IgG, PDGF-BB as analyte, average of the runs).
T1 construct: also called rhPDGF-BB; rhPDGFBB
Protocol: (§1) Each PDGF/VEGF variant was captured to a level of approximately 150 RUs. The running and sample buffer for the PDGF analysis was HBS-EP+300mM NaCl (10 mM 4-(2-hydroxyethyl)-1-piperazineethanesulfonic acid (HEPES) pH 7.4, 300 mM NaCl, 3mM ethylenediaminetetraacetic acid (EDTA), 0.05% (v/v) Tween-20). […] The surface was then regenerated with a 30 second pulse of 3M MgCl₂, a 30 second pulse of an ionic regeneration buffer (0.46M KSCN, 1.83 M MgCl2, 0.92 M urea, and 1.83 M guanidine-HCI pH7.4, Andersson et al., Analytical Chemistry, 1999) and then equilibrated with a 30 second pulse of HBS-EP+ 300 mM NaCl running buffer.
(§2) All SPR assays were performed at 25° C. with a data collection rate of1Hz using a Biacore T200 instrument (GE Healthcare). The resulting PDGP and VEGP sensorgrams were double referenced using both a control surface and buffer injections. The rate constants were determined by fitting the data to a 1:1 Langmuir model with Biacore T200 evaluation software v2.0 and the equation […].

T1 sequence (P01127 82-190): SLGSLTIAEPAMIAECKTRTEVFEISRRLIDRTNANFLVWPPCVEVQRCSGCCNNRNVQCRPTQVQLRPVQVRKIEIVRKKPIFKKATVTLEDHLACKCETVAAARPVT

Binder | Kd [pM]
B1 | 1.5

These binders were tested against T1, recombinant human PDGF-BB (assay: SPR (Biacore T200, 25 C), binder captured by anti-human IgG, PDGF-BB as analyte, run C).
Protocol: as §1, §2

Binder | Kd [pM] | koff [s⁻¹] | kon [M⁻¹ s⁻¹] | t½ [h]
B1 | 1.6 | 7.52e-05 | 4.71e+07 | 2.56
B2 | 1.19 | 0.000103 | 8.65e+07 | 1.87
B3 | 1.47 | 5.13e-05 | 3.48e+07 | 3.76

These binders were tested against T1, recombinant human PDGF-BB (assay: SPR (Biacore T200, 25 C), binder captured by anti-human IgG, PDGF-BB as analyte, run B).
Protocol: as §1, §2

Binder | Kd [pM] | koff [s⁻¹] | kon [M⁻¹ s⁻¹] | t½ [h]
B4 | 1.56 | 8.76e-05 | 5.62e+07 | 2.2
B1 | 1.73 | 4.96e-05 | 2.86e+07 | 3.88
B2 | 1.15 | 9.19e-05 | 8.01e+07 | 2.09
B3 | 1.04 | 5.85e-05 | 5.62e+07 | 3.29
B5 | 1.35 | 7.87e-05 | 5.82e+07 | 2.45

What follows are binders tested against T1, recombinant human PDGF-BB (assay: optical biosensor (Proteon XPR36 / Biacore 2000), binder amine-coupled, rhPDGF-BB injected, 25 C).
Protocol: (§3) Binding studies were performed at 25° C. and 37° C. using BioRad Proteon XPR36 and Biacore 2000 optical biosensors equipped with GLM (Proteon) and CM4 (Biacore) sensor chips and equilibrated with running buffer (10 m/M HEPES, 150 mM NaCl, 0.005% Teen-20, 0.2 mg/ml BSA).

Binder | Kd [pM]
B4 | 14
B6 | 17

The binders below were run against T1, recombinant human PDGF-BB (assay: cell-based or functional assay).

Binder | Inhibition of PDGF induced proliferation of HPVPs, IC50 [pM]
B4 | 5000
B6 | 2900

What follows are binders tested against T1, recombinant human PDGF-BB (assay: SPR (Biacore T200, 25 C), binder captured by anti-human IgG, PDGF-BB as analyte, run A).
Protocol: as §1, §2

Binder | Kd [pM] | koff [s⁻¹] | kon [M⁻¹ s⁻¹] | t½ [h]
B4 | 1.54 | 4.96e-05 | 3.22e+07 | 3.89
B1 | 1.03 | 5.92e-05 | 5.76e+07 | 3.25
B2 | 1.01 | 8.01e-05 | 7.97e+07 | 2.4
B3 | 1.25 | 9.46e-05 | 7.6e+07 | 2.03
B5 | 2.03 | 8.41e-05 | 4.15e+07 | 2.29

Each binder was assayed against T1, recombinant human PDGF-BB (assay: SPR (Biacore T200, 25 C), binder captured by anti-human IgG, PDGF-BB as analyte, average +/- SD of the runs).
Protocol: as §1, §2

Binder | Kd [pM]
B4 | 1.55
B2 | 1.1
B3 | 1.3
B5 | 1.7

The binders below were run against B8 (assay: optical biosensor (Proteon XPR36 / Biacore 2000), binder amine-coupled, rhVEGFA-165 injected, 25 C).
Protocol: as §3
Binding of the coupled proteins to the ligands was determined by standard methodology.

Binder | Kd [pM]
B7 | 1.56

The binders below were run against T1, recombinant human PDGF-BB (assay: competitive ELISA: OG1448 preincubated with 0.2 nM PDGF-BB plus rhVEGFA-165 at 0.2, 0.6 and 1.0 nM, competitor immobilized PDGFRb/Fc; in the presence of rhVEGFA-165 (0.2, 0.6 and 1.0 nM)).

Binder | IC50 [pM]
B6 | 25

The binders below were run against B7 (assay: cell-based or functional assay).

Binder | Inhibition of VEGF induced proliferation of HRMVECs, IC50 [pM]
B8 | 550

These binders were tested against T1, recombinant human PDGF-BB (assay: competitive ELISA: binder preincubated with 0.2 nM rhPDGF-BB, competitor immobilized PDGFR/Fc).

Binder | IC50 [pM]
B4 | 46
B6 | 54

— patent US20180244762A1 (KODIAK SCIENCES, published 2018)
